Data reported in publication PMC10462845 (Neoplasia (New York, N.Y.), 2023).

Tests used:
Assay in all cases: MST
[1] = target: T1, C-terminal BTB/POZ containing fragment of KCTD1 (BTB/POZ1) (UniProt Q719H9 1-257)
T1 sequence: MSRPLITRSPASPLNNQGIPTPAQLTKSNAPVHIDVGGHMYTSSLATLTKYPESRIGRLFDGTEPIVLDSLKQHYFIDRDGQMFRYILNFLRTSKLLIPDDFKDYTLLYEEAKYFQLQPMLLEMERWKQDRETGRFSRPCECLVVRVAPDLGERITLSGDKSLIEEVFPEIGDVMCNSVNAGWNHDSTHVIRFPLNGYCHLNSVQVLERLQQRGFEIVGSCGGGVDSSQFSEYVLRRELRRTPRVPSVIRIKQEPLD

[2] = target: BTB/POZ domain of KCTD15 (BTB/POZ15) (UniProt Q96SI1)
Chain of BTB/POZ domain of KCTD15 (BTB/POZ15) (Q96SI1 whole entry, the tested form may be a part): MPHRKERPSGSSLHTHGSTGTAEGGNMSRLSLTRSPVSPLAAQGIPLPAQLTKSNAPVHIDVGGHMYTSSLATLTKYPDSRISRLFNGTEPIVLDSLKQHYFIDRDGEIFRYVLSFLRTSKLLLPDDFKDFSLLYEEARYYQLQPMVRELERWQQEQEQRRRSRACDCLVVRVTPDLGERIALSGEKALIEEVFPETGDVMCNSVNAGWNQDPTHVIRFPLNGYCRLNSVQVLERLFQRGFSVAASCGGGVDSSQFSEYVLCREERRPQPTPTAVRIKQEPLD

[3] = target: C-terminal BTB/POZ containing fragment of KCTD1 (BTB/POZ1) (UniProt Q719H9)

B1: BTB/POZ domain of KCASH1 (KCTD11) (BTB/POZ11) (domain or fragment)
chain: GPVTLNVGGTLYSTTLETLTRFPDSMLGAMFRAGTPMPPNLNSQGGGHYFIDRDGKAFRHILNFLRLGRLDLPRGYGETALLRAEADFYQIRPLLDALRELEASQG
B1 was tested, and the Kd [1] was 0.8 ± 0.1 µM.

B2: KCASH2 (KCTD21), full length, recombinant (natural protein)
chain: MSDPITLNVGGKLYTTSLATLTSFPDSMLGAMFSGKMPTKRDSQGNCFIDRDGKVFRYILNFLRTSHLDLPEDFQEMGLLRREADFYQVQPLIEALQEKEVELSKAEKNAMLNITLNQRVQTVHFTVREAPQIYSLSSSSMEVFNANIFSTSCLFLKLLGSKLFYCSNGNLSSITSHLQDPNHLTLDWVANVEGLPEEEYTKQNLKRLWVVPANKQINSFQVFVEEVLKIALSDGFCIDSSHPHALDFMNNKIIRLIRYR
Work on B2 yielded a Kd [2] of 6.6 µM and a Kd [3] of 3.9 µM.
